B1: TPR t1 (parent)
chain: GACCAAUCUGCCCUCAGAGCUCGAGAACAUCUUCGGAUGCAGAGGAGGCAGGCUUCGGUGGCGCGAUAGCGCCAACGUCCUCAACCUCCAAUGCAUCCCACCACAUGAUGAUGCCUGAAGAGCCUUGGUUUUUUG

The series covers variants of B1. Briefly: polymerase ribozyme fitness, log enrichment relative to wild type (log ratio); higher = more active; in vitro selection for triplet polymerase activity. A digest of the protocol: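 A single round of triplicate in vitro selection, including frozen incubation at −7 °C, was applied to PCR-built, transcribed mutant libraries of each subunit of a heterodimeric triplet polymerase ribozyme. Illumina sequencing of input and output libraries retained genotypes with ≥10 input reads and ≥1 read per output. Fitness is the base-2 logarithm of genotype enrichment divided by wild-type enrichment, from inverse-variance-weighted replicate averages.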
For the variant GACCAAUCUGCCCUCAGAGCUCGAGAACAUCUUCGGAUGCAGAGGAGGCAGGCUUUGGUGGCGCGAUAGCGCAAACGUCCUCAACCUCCAAUGCAUCCCACCACAUGAUGAUGCCUGAAGAGCCUUGGUUUUUUG, the “polymerase ribozyme fitness (log ratio)” value is -0.837. Turning to GACCAAUCUGCCCUCAGAGCUCGAGAACAUCUUCGAAUGCAGAGGAGGCAGGCUUCGGUGGCGCGAUAGCGCCAACGUCCUCAACCUCCAAUGCAUCCCACCACAAGAUGAUGCCUGAAGAGCAUUGGGUUUUUG, the “polymerase ribozyme fitness (log ratio)” value stood at 0.262. Next, GACCAAUCUGCCCUCAGAGCUCGAGAACAUCUUCGGAGGCAGAGGAGGCAGGCUUCGGUGGCGCGAUAGCGCCAACGUCCUCAACCUCUAAUGCAUCCCACCACAUGAUGAUGCCUGAAGAGCCUUGGUUUUUUG: -0.78; GACCAAUCUGCCUGCUGAGCUCGAGAACAUCUUCGGAUGCAGAGGAGGCAGGCUUCGGUGGCGCGAUAGCGCCAACGUCCUCAACCUCCAAUUCAUCCCACCACAUGAUGAUGCCUGAACAGCCUUGGUUUUUUG: -3.43. As for GACCAAUCUGCCCUCAGAGCUCGAGAACGUCUUCGGAUGCAGAGGAGGCAGGCUUCGGUGGCGCGAUAGCGCCAACGUCCUCAACCUCCAAUGCAUCCCACCACAUGAUGAUGCCUGAAGAGCUUUGGUUUUUUG, the “polymerase ribozyme fitness (log ratio)” value came to 1.18. Next, GACCAAUCUGCCCUCAGAGCUCGAGAACAUCGUCGGAUGCAGAGGAGGCAGGCUUCGGUGGCGCGAUUGCGCCAACGUCAUCAACCUCCAAUGCAUCCCAUCACAUGAUGUUGCCUGAAGAGCCUGGGUUUUUUG: -6.67; GACCAAUCUGCCCUCAGAGCUCGAGAACAUCUUCGGGUGCAAAGGAGGCAGGCUUCGGUGACGCGAUAGCGCCAACGUCCUCAACCUCCAAUGCAUCCCACCACAUGAUGAUGCCUGAAGAGCCUUGGUUUUUUG: -1.68; GACCAAUCUGCCCUCAGAGCUCGAGAACAUCUUCGGAUGCAGAGGAGGCAGGCUUCGGUGGCGCGAUAGGGCCAACGGCCUCAACCUCCAAUGCAUCCCACCACAUGAUGAUGCCUGAAGAGCCUUGGUUUUUUG: -2.07. The figure for GAACAAUCUUCCCUCAGAGCUCGAGAACAUCUUCGGAUGCAGAGGAGGCAGGCUUCGGUGGCGCGAUAUCGUCAACGUCCUCAACCUCCAAUGCAUCCCAUCACAUGAUGAUGCCUGAAGAGCCUUGGUUUUUUG is -1.82. For GACCAAAUUGCCCUCAGAGCUCGAGAACAUCUUCGGAUGCAGAGGAGGCAGGCUUCGGUGUCGCGAUAGCGCCAACGUCCUCAACCUCCAAUGCAUCCCACCACAUGAUGAUGCCUGAAGAGCCUUGGUUUUUUG, the “polymerase ribozyme fitness (log ratio)” value stood at 0.322. The figure for GACCAAUCUGCCCUCAGAGCUCGAGAACAUCUUCGGAUGCCGAGGAGGCAGGCUUCGGUGGCGAGAUAGCGCCAACGUCCUCAACCUCCGAUGCAUCCCACCACAUGAUGAUGCCUGAAGAGCCUUGGUUUUUUG is -4.74; for GACCAAUCUGCCCUCAGAGCUCGAGAACAUCUUCGGAUGCAGAGGAGGCGGACUUCGGUGGCGCGAUAGCGCCAACGUCCUCAACCUCCAAUGCAUCCCACCACAUGAUGAUGCCUGAAGAGCCUUGGUUUUUUG it is 0.186. Next, GACCAAUCUGCGCUCAGAGCUCGAGAACAUCUUCGGAUGCAGAGGAGGCAGGCUUUGGUGGCGCGAUAGCGCCAACGUCCUCAACCUCCAAUGCAUCCCCCCACAUGAUGAUGCCUUAAGAGCCUUGGUUUUUUG: -3.6; GACCAAUCUGCCCUCAGGGCUCGAGAACAUCUUCGGAUGCAGAGGAGGCAGGCUUCGGUGGCGCGAUAGCGCCAACGUCCUCAACCGCCAAUGCAUCCCACCACAUGAAGAUGCCUGAAGAGCCUUGGUUUUUUG: -2.3. Next, GACCAAUCUACCCUCAGAGCUUGAGAACAUCUUUGGAUGCAGAGGAGGCAGGCUUCGGUGGCGCGAUAGCGACAACGUCCUCAACCUCCAAUGCAUCCCACCACAUGAUGAUGCGUGAAGCUCCUUGGUUUUUUG: -8.04; GACCAAUCUGCCCUCAGAGCUCGAGAACAUCUUCGGAUGCAGAGGAGGCAUGCUUCGGUGGCGCGAUAGCGCCAACGUCCUCAACCUCCAAUGCAUCCCACCACAUGAUGAUGCCUGAAGAGCCUUGGCUUUUUG: -4.13; GACCAAUCUGCCCUCAGAGCUUGAGAACAUCUUCGGAUGCGGAGGAGGCAGGCUUCGGUGGCGCGAUAGCGUCAACGUCCUCAACCUCCAAUGCAUCCCACCACAUGAUGAUGCCUGAAGAGCUUUGGUUUUUUG: -3.44. Regarding GACCAAUCUGCCCUCAGAGCUCGAGAACAUCUUCGGAUGCAGAGGAGGCAGGCUUCGGUGGCGCGAUAGCGCCAACGUCCUCAACCUCCAAUCCAUCCCAACAUAUGAUGAUGCCUGAAGAGCCUUGGUUUUUUG, the “polymerase ribozyme fitness (log ratio)” value was -2.05. The figure for GACCACUCUGCCCUCAGAGCUCGAGAACAUCUUCGGAUGCAGAGGAGGCAGGCUUCGGUGGCGCGAUAGCGCCAACGAACUCAACCUCCAAUGCAUCCCACCACAUGAUGAUGCCUGAAGAGCCUUGGUUUUUUG is -3.63. The figure for GACCAAUCUGCCUUCAGAGCUCGAGAACAUCUUCGGAUGCAGAGGCGGCAGGCUUCGGUGGCGCGAUAGCGCCAACGUCCUCAACCUCCAAUGCAUCCCACCACAUGAUGAUGCCUGAAGAGCCUUGGUUUUUUG is 0.0656; for GACCAAUCUGCCCUCAGAGCUCGAGAACAUCUUCGGAUGCAAAGGAGGCAGGCUUCGGUGGCGCGAUAGCGCCAACGUCCUCAACCUCCAAUGCAUCCUACCACAUGAUGAUGCCUGAAGAGCCUUGGUUUUUUG it is -6.05.

The record behind these values is the RNAGym collection of RNA variant scans (doi:10.1073/pnas.2313332121).
